Values of other authors as cited in paper PMC3433420.
Read-outs that look alike come from different tables or passages of the source.

Experiments:
Conditions in all cases: cited from earlier work
[1] = biological target: PLCG1-NC (Homo sapiens) (UniProt P19174)
[2] = biological target: SH2D3A (Homo sapiens) (UniProt Q9BRG2)
[3] = biological target: PIK3R2-N (Homo sapiens) (UniProt O00459)
[4] = biological target: RASA1-NC (Homo sapiens) (UniProt P20936)
[5] = biological target: PIK3R1-NC (Homo sapiens) (UniProt P27986)
[6] = biological target: PLCG1-NC (Homo sapiens) (UniProt P19174); remark: listed apart in the source
[7] = biological target: CRKL (Homo sapiens) (UniProt P46109)
[8] = biological target: SLA2 (Homo sapiens) (UniProt Q9H6Q3)
[9] = biological target: SOCS2 (Homo sapiens) (UniProt O14508)
[10] = biological target: RASA1-NC (Homo sapiens) (UniProt P20936); remark: listed apart in the source
[11] = biological target: SHC3 (Homo sapiens) (UniProt Q92529)
[12] = biological target: SLA (Homo sapiens) (UniProt Q13239)
[13] = biological target: TXK (Homo sapiens) (UniProt P42681)
[14] = biological target: PLCG2-NC (Homo sapiens) (UniProt P16885)
[15] = biological target: DAPP1 (Homo sapiens) (UniProt Q9UN19)
[16] = biological target: GRB10 (Homo sapiens) (UniProt Q13322)
[17] = biological target: PLCG2-NC (Homo sapiens) (UniProt P16885); remark: listed apart in the source
[18] = biological target: SH2B3 (Homo sapiens) (UniProt Q9UQQ2)
[19] = biological target: NCK1 (Homo sapiens) (UniProt P16333)
[20] = biological target: RASA1-C (Homo sapiens) (UniProt P20936)
[21] = biological target: SRC (Homo sapiens) (UniProt P12931)
[22] = biological target: PTPN11-N (Homo sapiens) (UniProt Q06124)
[23] = biological target: SYK-N (Homo sapiens) (UniProt P43405)
[24] = biological target: SHC1-PTB (Homo sapiens) (UniProt P29353)
[25] = biological target: RASA1-NC (Homo sapiens) (UniProt P20936); remark: listed apart in the source
[26] = biological target: ABL1 (Homo sapiens) (UniProt P00519)
[27] = biological target: FGR (Homo sapiens) (UniProt P09769)
[28] = biological target: VAV1 (Homo sapiens) (UniProt P15498)
[29] = biological target: TNS3 (Homo sapiens) (UniProt Q68CZ2)
[30] = biological target: HSH2D (Homo sapiens) (UniProt Q96JZ2)
Chain of HSH2D (Homo sapiens) (Q96JZ2 29-130): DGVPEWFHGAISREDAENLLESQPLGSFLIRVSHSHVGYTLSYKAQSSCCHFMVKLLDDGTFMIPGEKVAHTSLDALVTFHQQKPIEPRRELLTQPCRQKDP

Chain of RASA1-NC (Homo sapiens) (P20936 176-446): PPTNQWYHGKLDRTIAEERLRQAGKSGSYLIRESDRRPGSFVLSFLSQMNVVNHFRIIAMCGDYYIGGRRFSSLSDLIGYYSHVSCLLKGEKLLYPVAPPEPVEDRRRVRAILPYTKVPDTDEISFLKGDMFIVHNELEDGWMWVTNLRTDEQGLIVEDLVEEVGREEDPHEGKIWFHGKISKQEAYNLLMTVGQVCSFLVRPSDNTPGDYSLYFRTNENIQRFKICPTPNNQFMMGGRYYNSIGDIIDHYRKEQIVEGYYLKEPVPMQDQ
Chain of PLCG2-NC (Homo sapiens) (P16885 527-740): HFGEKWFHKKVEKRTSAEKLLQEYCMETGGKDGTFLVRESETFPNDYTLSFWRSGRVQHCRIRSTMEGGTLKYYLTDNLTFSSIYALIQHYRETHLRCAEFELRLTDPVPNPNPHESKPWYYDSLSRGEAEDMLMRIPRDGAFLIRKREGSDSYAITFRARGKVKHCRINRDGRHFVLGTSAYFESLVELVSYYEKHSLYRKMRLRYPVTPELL
Chain of PLCG1-NC (Homo sapiens) (P19174 545-761): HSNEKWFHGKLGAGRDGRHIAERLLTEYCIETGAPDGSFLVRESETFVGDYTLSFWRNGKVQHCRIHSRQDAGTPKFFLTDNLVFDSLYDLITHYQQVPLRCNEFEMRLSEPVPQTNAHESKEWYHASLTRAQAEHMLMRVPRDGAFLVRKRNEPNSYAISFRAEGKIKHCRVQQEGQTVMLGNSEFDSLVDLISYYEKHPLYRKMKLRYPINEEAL
Chain of SHC1-PTB (Homo sapiens) (P29353 483-583): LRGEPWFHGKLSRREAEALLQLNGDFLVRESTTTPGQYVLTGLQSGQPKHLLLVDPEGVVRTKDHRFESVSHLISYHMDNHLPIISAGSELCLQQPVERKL
Chain of ABL1 (Homo sapiens) (P00519 122-222): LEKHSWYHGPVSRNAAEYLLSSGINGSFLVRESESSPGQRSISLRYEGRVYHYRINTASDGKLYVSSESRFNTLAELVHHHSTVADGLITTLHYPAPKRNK
Chain of SH2B3 (Homo sapiens) (Q9UQQ2 359-467): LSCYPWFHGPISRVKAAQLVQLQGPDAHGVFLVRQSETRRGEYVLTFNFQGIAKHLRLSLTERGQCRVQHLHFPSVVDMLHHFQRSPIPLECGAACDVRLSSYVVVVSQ
Chain of SH2D3A (Homo sapiens) (Q9BRG2 10-119): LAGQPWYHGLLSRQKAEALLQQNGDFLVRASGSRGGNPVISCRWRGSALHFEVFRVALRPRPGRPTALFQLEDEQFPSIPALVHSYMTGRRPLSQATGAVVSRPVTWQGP
Chain of TNS3 (Homo sapiens) (Q68CZ2 1167-1287): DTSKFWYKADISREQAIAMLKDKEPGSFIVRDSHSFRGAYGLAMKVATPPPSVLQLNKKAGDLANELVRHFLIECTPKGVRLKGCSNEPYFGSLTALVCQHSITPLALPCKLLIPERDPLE
Chain of SHC3 (Homo sapiens) (Q92529 494-594): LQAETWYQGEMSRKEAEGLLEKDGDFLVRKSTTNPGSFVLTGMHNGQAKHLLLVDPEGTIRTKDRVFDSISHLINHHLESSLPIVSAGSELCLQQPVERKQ
Chain of GRB10 (Homo sapiens) (Q13322 488-579): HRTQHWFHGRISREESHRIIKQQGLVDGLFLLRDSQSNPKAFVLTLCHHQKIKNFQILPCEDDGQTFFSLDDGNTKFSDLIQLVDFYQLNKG
Chain of VAV1 (Homo sapiens) (P15498 666-770): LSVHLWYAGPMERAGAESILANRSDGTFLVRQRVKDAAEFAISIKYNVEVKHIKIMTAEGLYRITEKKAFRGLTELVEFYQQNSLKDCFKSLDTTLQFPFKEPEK
Chain of PIK3R2-N (Homo sapiens) (O00459 325-721): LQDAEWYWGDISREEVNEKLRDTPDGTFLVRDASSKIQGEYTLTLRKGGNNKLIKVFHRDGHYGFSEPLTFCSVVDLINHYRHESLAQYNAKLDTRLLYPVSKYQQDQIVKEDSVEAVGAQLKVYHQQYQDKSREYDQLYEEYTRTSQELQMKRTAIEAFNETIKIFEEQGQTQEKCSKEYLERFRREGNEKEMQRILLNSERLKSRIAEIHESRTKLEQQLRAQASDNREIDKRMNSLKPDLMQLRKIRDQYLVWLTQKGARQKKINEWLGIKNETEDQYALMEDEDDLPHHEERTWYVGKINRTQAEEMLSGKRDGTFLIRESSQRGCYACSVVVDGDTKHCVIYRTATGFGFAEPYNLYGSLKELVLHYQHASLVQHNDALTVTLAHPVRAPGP
Chain of SOCS2 (Homo sapiens) (O14508 43-161): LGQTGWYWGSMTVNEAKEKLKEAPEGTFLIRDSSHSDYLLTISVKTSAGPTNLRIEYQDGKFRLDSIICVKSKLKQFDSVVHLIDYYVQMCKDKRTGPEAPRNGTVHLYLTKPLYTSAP
Chain of DAPP1 (Homo sapiens) (Q9UN19 30-134): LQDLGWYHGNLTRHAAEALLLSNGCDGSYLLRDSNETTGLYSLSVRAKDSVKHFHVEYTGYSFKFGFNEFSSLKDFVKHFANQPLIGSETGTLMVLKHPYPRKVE
Chain of SLA (Homo sapiens) (Q13239 79-180): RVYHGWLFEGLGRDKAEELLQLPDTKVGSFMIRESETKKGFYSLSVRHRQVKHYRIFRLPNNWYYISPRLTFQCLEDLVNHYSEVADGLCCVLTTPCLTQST
Chain of TXK (Homo sapiens) (P42681 145-251): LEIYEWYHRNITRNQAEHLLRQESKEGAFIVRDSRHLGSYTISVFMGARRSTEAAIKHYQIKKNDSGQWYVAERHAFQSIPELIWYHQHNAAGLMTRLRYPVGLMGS
Chain of RASA1-C (Homo sapiens) (P20936 176-446): as the sequence (P20936 176-446) above
Chain of CRKL (Homo sapiens) (P46109 9-107): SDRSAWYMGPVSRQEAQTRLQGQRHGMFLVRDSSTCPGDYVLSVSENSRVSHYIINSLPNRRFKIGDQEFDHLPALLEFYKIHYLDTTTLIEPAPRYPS
Chain of PIK3R1-NC (Homo sapiens) (P27986 328-723): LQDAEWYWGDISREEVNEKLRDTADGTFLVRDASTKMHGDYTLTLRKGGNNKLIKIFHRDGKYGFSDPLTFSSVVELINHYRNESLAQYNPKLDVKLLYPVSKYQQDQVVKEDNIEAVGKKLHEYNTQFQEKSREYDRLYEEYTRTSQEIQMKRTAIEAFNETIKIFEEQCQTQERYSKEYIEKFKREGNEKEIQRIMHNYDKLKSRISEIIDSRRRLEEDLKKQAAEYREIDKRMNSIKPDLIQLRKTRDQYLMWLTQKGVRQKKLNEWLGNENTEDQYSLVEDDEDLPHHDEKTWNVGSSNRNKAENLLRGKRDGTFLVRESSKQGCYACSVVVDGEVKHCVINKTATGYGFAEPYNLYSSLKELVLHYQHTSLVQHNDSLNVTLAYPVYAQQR
Chain of SLA2 (Homo sapiens) (Q9H6Q3 89-196): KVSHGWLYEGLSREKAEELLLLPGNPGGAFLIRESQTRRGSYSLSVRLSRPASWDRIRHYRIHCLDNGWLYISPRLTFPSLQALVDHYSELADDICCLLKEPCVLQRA

Substance: …pYLIPQQGFd
- apparent Kd (screen) [1]: 794 nM
- apparent Kd (screen) [2]: 2000 nM
- apparent Kd (screen) [3]: 425 nM
- apparent Kd (screen) [4]: 1420 nM
- apparent Kd (screen) [5]: 175 nM

Substance: …pYLVPQQGF
- apparent Kd (screen) [6]: 2000 nM
- apparent Kd (screen) [7]: 2000 nM
- apparent Kd (screen) [8]: 2000 nM
- apparent Kd (screen) [9]: 2000 nM
- apparent Kd (screen) [10]: 2000 nM
- apparent Kd (screen) [11]: 2000 nM

Substance: …pYWDQDPPE
- apparent Kd (screen) [12]: 2000 nM
- apparent Kd (screen) [13]: 2000 nM
- apparent Kd (screen) [14]: 263 nM
- apparent Kd (screen) [15]: 2000 nM
- apparent Kd (screen) [16]: 486 nM
- apparent Kd (screen) [17]: 2000 nM
- apparent Kd (screen) [18]: 2000 nM
- apparent Kd (screen) [19]: 2000 nM
- apparent Kd (screen) [20]: 2000 nM
- apparent Kd (screen) [21]: 2000 nM
- apparent Kd (screen) [22]: 2000 nM
- apparent Kd (screen) [23]: 203 nM
- apparent Kd (screen) [24]: 614 nM
- apparent Kd (screen) [25]: 2000 nM

Substance: …pYEEMRAFQ
- apparent Kd (screen) [26]: 633 nM
- apparent Kd (screen) [27]: 1160 nM
- apparent Kd (screen) [28]: 499 nM
- apparent Kd (screen) [29]: 639 nM
- apparent Kd (screen) [30]: 2000 nM
